Reference: publication PMC9482650, “Quantitative fragmentomics allow affinity mapping of interactomes” (Nature Communications, 2022)

T1: FRMPD1, Q5SYB0
T1 sequence (Q5SYB0 52-145, limits assumed, looked up): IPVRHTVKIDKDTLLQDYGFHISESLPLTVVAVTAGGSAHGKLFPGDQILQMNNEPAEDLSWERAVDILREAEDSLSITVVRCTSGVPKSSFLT

T2: HTRA3, P83110
T2 sequence (P83110 354-453, limits assumed, looked up): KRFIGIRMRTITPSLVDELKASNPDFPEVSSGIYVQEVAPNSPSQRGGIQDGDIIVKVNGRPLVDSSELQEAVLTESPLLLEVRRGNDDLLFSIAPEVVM

T3: SNTA1, Q13424
T3 sequence (Q13424 82-180, limits assumed, looked up): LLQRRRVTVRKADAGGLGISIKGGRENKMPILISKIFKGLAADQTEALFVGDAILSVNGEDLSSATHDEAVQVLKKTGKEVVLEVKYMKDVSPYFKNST

T4: SNTG2, Q9NY99
T4 sequence (Q9NY99 68-166, limits assumed, looked up): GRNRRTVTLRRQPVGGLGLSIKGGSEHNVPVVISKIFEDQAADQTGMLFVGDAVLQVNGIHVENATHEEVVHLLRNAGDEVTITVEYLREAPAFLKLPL

T5: APBA3_1, O96018
T5 sequence (O96018 389-490, limits assumed, looked up): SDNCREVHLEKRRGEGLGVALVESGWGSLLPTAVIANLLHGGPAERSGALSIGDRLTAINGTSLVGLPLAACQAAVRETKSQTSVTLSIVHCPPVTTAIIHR

T6: LIN7C, Q9NUP9
T6 sequence (Q9NUP9 88-185, limits assumed, looked up): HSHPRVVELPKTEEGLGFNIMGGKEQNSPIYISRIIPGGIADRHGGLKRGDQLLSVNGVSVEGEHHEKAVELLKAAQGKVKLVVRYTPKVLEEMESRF

T7: TX1BP3, O14907
T7 sequence (O14907 10-122, limits assumed, looked up): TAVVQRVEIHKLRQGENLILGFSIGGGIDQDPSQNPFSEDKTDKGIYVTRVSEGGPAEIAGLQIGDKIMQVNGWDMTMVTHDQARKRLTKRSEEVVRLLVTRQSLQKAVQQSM

T8: TJP3_3, O95049
T8 sequence (O95049 375-456, limits assumed, looked up): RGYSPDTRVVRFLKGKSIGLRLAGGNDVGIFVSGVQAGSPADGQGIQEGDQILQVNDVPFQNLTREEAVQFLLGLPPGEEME

T9: DVL3, Q92997
T9 sequence (Q92997 244-331, limits assumed, looked up): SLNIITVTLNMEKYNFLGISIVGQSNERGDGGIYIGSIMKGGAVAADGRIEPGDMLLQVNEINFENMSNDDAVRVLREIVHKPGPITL

T10: PTPN13_1, Q12923
T10 sequence (Q12923 1088-1188, limits assumed, looked up): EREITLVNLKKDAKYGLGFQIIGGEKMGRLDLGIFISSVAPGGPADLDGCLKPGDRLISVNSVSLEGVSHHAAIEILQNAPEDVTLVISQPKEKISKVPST

T11: RHPN1, Q8TCX5
T11 sequence (Q8TCX5 508-602, limits assumed, looked up): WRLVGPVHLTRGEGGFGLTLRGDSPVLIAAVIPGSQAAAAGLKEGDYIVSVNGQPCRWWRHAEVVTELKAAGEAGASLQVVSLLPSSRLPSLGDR

T12: PDZD7_3, Q9H5P4
T12 sequence (Q9H5P4 857-944, limits assumed, looked up): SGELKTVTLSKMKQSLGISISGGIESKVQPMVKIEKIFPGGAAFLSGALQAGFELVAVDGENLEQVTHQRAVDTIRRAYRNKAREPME

B1: ADRB1, P08588 (peptide)
chain: RPGFASESKV
B2: GJD2, Q9UKL4 (peptide)
chain: RTQSSDSAYV
B3: PKP4, Q99569 (peptide)
chain: QYPGSPDSWV

Target: T1, FRMPD1, Q5SYB0
Test: holdup assay
Set-up: key: below the threshold = too weak to quantify, mostly under pKd 3.1 to 4
Settings: plain residues with an end cap or a label only (N-terminal biotin on a linker: ado-ado)

pKd | Binder
below the threshold | B1
below the threshold | B2
below the threshold | B3

Target: PDZRN4_1, Q6ZMN7
Sequence (Q6ZMN7 213-318): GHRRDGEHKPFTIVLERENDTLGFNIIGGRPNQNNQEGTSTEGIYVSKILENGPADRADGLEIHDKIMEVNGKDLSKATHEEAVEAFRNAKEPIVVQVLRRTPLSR
Test: holdup assay
Set-up: key: below the threshold = too weak to quantify, mostly under pKd 3.1 to 4
Settings: plain residues with an end cap or a label only (N-terminal biotin on a linker: ado-ado)

pKd | Binder
3.69 | B1
below the threshold | B2
4.06 | B3

Target: FRMPD3, Q5JV73
Sequence (Q5JV73 12-100): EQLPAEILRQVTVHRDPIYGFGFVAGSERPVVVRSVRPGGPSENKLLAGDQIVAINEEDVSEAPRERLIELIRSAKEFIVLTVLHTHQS
Test: holdup assay
Set-up: key: below the threshold = too weak to quantify, mostly under pKd 3.1 to 4
Settings: plain residues with an end cap or a label only (N-terminal biotin on a linker: ado-ado)

pKd | Binder
below the threshold | B1
3.65 | B2
3.47 | B3

Target: MAGI2_4, Q86UL8
Sequence (Q86UL8 772-865): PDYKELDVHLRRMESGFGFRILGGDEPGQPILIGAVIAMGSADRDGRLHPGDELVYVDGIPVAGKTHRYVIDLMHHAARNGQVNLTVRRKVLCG
Test: holdup assay
Set-up: key: below the threshold = too weak to quantify, mostly under pKd 3.1 to 4
Settings: plain residues with an end cap or a label only (N-terminal biotin on a linker: ado-ado)

pKd | Binder
below the threshold | B1
below the threshold | B2
4.32 | B3

Target: MAST1, Q9Y2H9
Sequence (Q9Y2H9 962-1065): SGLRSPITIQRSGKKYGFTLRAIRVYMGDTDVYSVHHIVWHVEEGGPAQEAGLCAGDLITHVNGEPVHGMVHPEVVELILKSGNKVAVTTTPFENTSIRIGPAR
Test: holdup assay
Set-up: key: below the threshold = too weak to quantify, mostly under pKd 3.1 to 4
Settings: plain residues with an end cap or a label only (N-terminal biotin on a linker: ado-ado)

pKd | Binder
3.66 | B1
below the threshold | B2
3.97 | B3

Target: FRMPD2_2, Q68DX3
Sequence (Q68DX3 944-1038): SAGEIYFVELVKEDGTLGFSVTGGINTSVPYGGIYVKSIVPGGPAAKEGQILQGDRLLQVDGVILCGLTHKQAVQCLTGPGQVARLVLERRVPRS
Test: holdup assay
Set-up: key: below the threshold = too weak to quantify, mostly under pKd 3.1 to 4
Settings: plain residues with an end cap or a label only (N-terminal biotin on a linker: ado-ado)

pKd | Binder
3.5 | B1
below the threshold | B2
4.34 | B3

Target: T2, HTRA3, P83110
Test: holdup assay
Set-up: key: below the threshold = too weak to quantify, mostly under pKd 3.1 to 4
Settings: plain residues with an end cap or a label only (N-terminal biotin on a linker: ado-ado)

pKd | Binder
below the threshold | B1
4.68 | B2
5.54 | B3

Target: T3, SNTA1, Q13424
Test: holdup assay
Set-up: key: below the threshold = too weak to quantify, mostly under pKd 3.1 to 4
Settings: plain residues with an end cap or a label only (N-terminal biotin on a linker: ado-ado)

pKd | Binder
4.28 | B1
below the threshold | B2
4.13 | B3

Target: T4, SNTG2, Q9NY99
Test: holdup assay
Set-up: key: below the threshold = too weak to quantify, mostly under pKd 3.1 to 4
Settings: plain residues with an end cap or a label only (N-terminal biotin on a linker: ado-ado)

pKd | Binder
4.35 | B1
below the threshold | B2
3.62 | B3

Target: Inadl_4, Q8NI35
Sequence (Q8NI35 547-651): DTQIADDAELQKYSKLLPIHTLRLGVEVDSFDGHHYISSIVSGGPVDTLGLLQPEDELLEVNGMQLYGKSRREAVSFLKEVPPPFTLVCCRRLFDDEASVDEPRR
Test: holdup assay
Set-up: key: below the threshold = too weak to quantify, mostly under pKd 3.1 to 4
Settings: plain residues with an end cap or a label only (N-terminal biotin on a linker: ado-ado)

pKd | Binder
below the threshold | B1
below the threshold | B2
below the threshold | B3

Target: FRMPD2_1, Q68DX3
Sequence (Q68DX3 770-861): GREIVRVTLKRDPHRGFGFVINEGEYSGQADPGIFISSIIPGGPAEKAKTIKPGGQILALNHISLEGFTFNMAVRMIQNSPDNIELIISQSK
Test: holdup assay
Set-up: key: below the threshold = too weak to quantify, mostly under pKd 3.1 to 4
Settings: plain residues with an end cap or a label only (N-terminal biotin on a linker: ado-ado)

pKd | Binder
below the threshold | B1
3.66 | B2
below the threshold | B3

Target: T5, APBA3_1, O96018
Test: holdup assay
Set-up: key: below the threshold = too weak to quantify, mostly under pKd 3.1 to 4
Settings: plain residues with an end cap or a label only (N-terminal biotin on a linker: ado-ado)

pKd | Binder
below the threshold | B1
below the threshold | B2
3.63 | B3

Target: T6, LIN7C, Q9NUP9
Test: holdup assay
Set-up: key: below the threshold = too weak to quantify, mostly under pKd 3.1 to 4
Settings: plain residues with an end cap or a label only (N-terminal biotin on a linker: ado-ado)

pKd | Binder
below the threshold | B1
below the threshold | B2
3.94 | B3

Target: T7, TX1BP3, O14907
Test: holdup assay
Set-up: key: below the threshold = too weak to quantify, mostly under pKd 3.1 to 4
Settings: plain residues with an end cap or a label only (N-terminal biotin on a linker: ado-ado)

pKd | Binder
4.72 | B1
below the threshold | B2
4.98 | B3

Target: DLG2_3, Q15700
Test: holdup assay
Set-up: key: below the threshold = too weak to quantify, mostly under pKd 3.1 to 4
Settings: plain residues with an end cap or a label only (N-terminal biotin on a linker: ado-ado)

pKd | Binder
3.75 | B1
below the threshold | B2
below the threshold | B3

Target: PTPN3, P26045
Sequence (P26045 505-587): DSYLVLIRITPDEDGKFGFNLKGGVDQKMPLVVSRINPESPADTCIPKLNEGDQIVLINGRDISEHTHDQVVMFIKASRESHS
Test: holdup assay
Set-up: key: below the threshold = too weak to quantify, mostly under pKd 3.1 to 4
Settings: plain residues with an end cap or a label only (N-terminal biotin on a linker: ado-ado)

pKd | Binder
4.32 | B1
3.52 | B2
4.96 | B3

Target: Inadl_5, Q8NI35
Sequence (Q8NI35 673-780): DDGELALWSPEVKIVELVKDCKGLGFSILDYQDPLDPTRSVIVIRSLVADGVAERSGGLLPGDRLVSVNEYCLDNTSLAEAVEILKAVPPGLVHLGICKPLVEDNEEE
Test: holdup assay
Set-up: key: below the threshold = too weak to quantify, mostly under pKd 3.1 to 4
Settings: plain residues with an end cap or a label only (N-terminal biotin on a linker: ado-ado)

pKd | Binder
below the threshold | B1
3.5 | B2
3.87 | B3

Target: T8, TJP3_3, O95049
Test: holdup assay
Set-up: key: below the threshold = too weak to quantify, mostly under pKd 3.1 to 4
Settings: plain residues with an end cap or a label only (N-terminal biotin on a linker: ado-ado)

pKd | Binder
below the threshold | B1
3.71 | B2
4.86 | B3

Target: ARHGEF12, Q9NZN5-2
Sequence (Q9NZN5 other isoform, or with tags, fused parts or gaps): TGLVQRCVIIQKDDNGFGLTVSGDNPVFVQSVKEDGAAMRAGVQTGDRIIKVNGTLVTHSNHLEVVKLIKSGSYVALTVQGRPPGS
Test: holdup assay
Set-up: key: below the threshold = too weak to quantify, mostly under pKd 3.1 to 4
Settings: plain residues with an end cap or a label only (N-terminal biotin on a linker: ado-ado)

pKd | Binder
3.52 | B1
4.35 | B2
3.54 | B3

Target: T9, DVL3, Q92997
Test: holdup assay
Set-up: key: below the threshold = too weak to quantify, mostly under pKd 3.1 to 4
Settings: plain residues with an end cap or a label only (N-terminal biotin on a linker: ado-ado)

pKd | Binder
below the threshold | B1
3.48 | B2
3.93 | B3

Target: T10, PTPN13_1, Q12923
Test: holdup assay
Set-up: key: below the threshold = too weak to quantify, mostly under pKd 3.1 to 4
Settings: plain residues with an end cap or a label only (N-terminal biotin on a linker: ado-ado)

pKd | Binder
below the threshold | B1
below the threshold | B2
below the threshold | B3

Target: GORASP1, Q9BQQ3
Sequence (Q9BQQ3 1-208): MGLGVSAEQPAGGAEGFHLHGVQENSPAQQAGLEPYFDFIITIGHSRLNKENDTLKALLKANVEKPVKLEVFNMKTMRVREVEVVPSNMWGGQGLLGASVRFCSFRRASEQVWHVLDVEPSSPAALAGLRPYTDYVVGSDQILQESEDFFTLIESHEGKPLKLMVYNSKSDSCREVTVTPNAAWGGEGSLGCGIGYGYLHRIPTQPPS
Test: holdup assay
Set-up: key: below the threshold = too weak to quantify, mostly under pKd 3.1 to 4
Settings: plain residues with an end cap or a label only (N-terminal biotin on a linker: ado-ado)

pKd | Binder
below the threshold | B1
3.67 | B2
3.79 | B3

Target: GRIP2_3, Q9C0E4
Sequence (Q9C0E4 238-339): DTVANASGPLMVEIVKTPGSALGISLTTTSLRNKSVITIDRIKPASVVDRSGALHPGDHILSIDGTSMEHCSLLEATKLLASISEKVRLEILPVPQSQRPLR
Test: holdup assay
Set-up: key: below the threshold = too weak to quantify, mostly under pKd 3.1 to 4
Settings: plain residues with an end cap or a label only (N-terminal biotin on a linker: ado-ado)

pKd | Binder
below the threshold | B1
below the threshold | B2
below the threshold | B3

Target: T11, RHPN1, Q8TCX5
Test: holdup assay
Set-up: key: below the threshold = too weak to quantify, mostly under pKd 3.1 to 4
Settings: plain residues with an end cap or a label only (N-terminal biotin on a linker: ado-ado)

pKd | Binder
4.59 | B1
3.84 | B2
4.26 | B3

Target: T12, PDZD7_3, Q9H5P4
Test: holdup assay
Set-up: key: below the threshold = too weak to quantify, mostly under pKd 3.1 to 4
Settings: plain residues with an end cap or a label only (N-terminal biotin on a linker: ado-ado)

pKd | Binder
3.71 | B1
below the threshold | B2
4.11 | B3
